Earlier results in article PMC4554539.

Columns and labels:
[1] = target: IL18 receptor (Homo sapiens) (UniProt Q13478); assay: binding to L428 cells
[2] = target: IL18 receptor (Homo sapiens) (UniProt Q13478); assay: binding to transfected COS-1 cells

Sequence of IL18 receptor (Homo sapiens) (Q13478 19-541): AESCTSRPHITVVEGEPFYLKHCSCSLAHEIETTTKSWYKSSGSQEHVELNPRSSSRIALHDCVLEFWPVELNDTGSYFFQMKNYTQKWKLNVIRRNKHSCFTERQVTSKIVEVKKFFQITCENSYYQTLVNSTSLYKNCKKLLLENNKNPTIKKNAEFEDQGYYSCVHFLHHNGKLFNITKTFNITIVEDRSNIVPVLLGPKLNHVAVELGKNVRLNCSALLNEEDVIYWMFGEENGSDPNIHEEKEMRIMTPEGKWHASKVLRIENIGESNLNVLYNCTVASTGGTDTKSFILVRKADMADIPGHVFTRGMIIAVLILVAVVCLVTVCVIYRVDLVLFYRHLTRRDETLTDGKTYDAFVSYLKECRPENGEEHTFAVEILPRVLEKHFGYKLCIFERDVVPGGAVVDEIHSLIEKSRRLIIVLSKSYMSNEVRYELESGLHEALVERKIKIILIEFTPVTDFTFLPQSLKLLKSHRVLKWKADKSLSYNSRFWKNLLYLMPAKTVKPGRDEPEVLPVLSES
Sequence of IL18 (Q14116 37-193): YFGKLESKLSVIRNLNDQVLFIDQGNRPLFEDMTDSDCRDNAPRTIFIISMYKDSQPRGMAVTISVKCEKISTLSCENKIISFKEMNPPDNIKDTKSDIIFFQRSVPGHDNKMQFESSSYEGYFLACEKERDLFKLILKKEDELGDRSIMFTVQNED

Kd [1]: 18.5 nM
Kd [2]: 46 nM
Substance: IL18 (from UniProt Q14116)
